How the values were obtained:
Assay in all cases: cell-based or functional assay
[1] = target: 9004SS_A3_4 Env pseudovirus (HIV-1)
[2] = target: CNE52 Env pseudovirus (HIV-1)
[3] = target: TRJO4551.58 Env pseudovirus (HIV-1)
[4] = target: 263-8 Env pseudovirus (HIV-1)
[5] = target: HIV-16845-2.22 Env pseudovirus (HIV-1)
[6] = target: Ce704809221_1B3 Env pseudovirus (HIV-1)
[7] = target: 1006_11_C3_1601 Env pseudovirus (HIV-1)
[8] = target: Q23.17 Env pseudovirus (HIV-1)
[9] = target: T257-31 Env pseudovirus (HIV-1)
[10] = target: SC05_8C11_2344 Env pseudovirus (HIV-1)
[11] = target: Q769.d22 Env pseudovirus (HIV-1)
[12] = target: BF1266.431a Env pseudovirus (HIV-1)
[13] = target: 1054_07_TC4_1499 Env pseudovirus (HIV-1)
[14] = target: CNE58 Env pseudovirus (HIV-1)
[15] = target: 6535.3 Env pseudovirus (HIV-1)
[16] = target: TRO.11 Env pseudovirus (HIV-1)
[17] = target: 928-28 Env pseudovirus (HIV-1)
[18] = target: ZM233M.PB6 Env pseudovirus (HIV-1)
[19] = target: CNE17 Env pseudovirus (HIV-1)
[20] = target: 6240_08_TA5_4622 Env pseudovirus (HIV-1)
[21] = target: SC422661.8 Env pseudovirus (HIV-1)
[22] = target: HIV-16055-2.3 Env pseudovirus (HIV-1)
[23] = target: ZM109F.PB4 Env pseudovirus (HIV-1)
[24] = target: Ce0682_E4 Env pseudovirus (HIV-1)
[25] = target: 6244_13_B5_4576 Env pseudovirus (HIV-1)
[26] = target: 191084 B7-19 Env pseudovirus (HIV-1)
[27] = target: Du156.12 Env pseudovirus (HIV-1)
[28] = target: Ce2060_G9 Env pseudovirus (HIV-1)
[29] = target: REJO4541.67 Env pseudovirus (HIV-1)
[30] = target: PVO.4 Env pseudovirus (HIV-1)
[31] = target: 249M B10 Env pseudovirus (HIV-1)
[32] = target: CAP210.2.00.E8 Env pseudovirus (HIV-1)
[33] = target: HIV-0013095-2.11 Env pseudovirus (HIV-1)
[34] = target: Ce2010_F5 Env pseudovirus (HIV-1)
[35] = target: WITO4160.33 Env pseudovirus (HIV-1)
[36] = target: 1056_10_TA11_1826 Env pseudovirus (HIV-1)

B1: N49P22 (antibody, V domains shown)
V domain 1: HIQLLQSGPQVKKSGDTVRISCETSGYNFVDSRIHWVRQTPEKRLRWMGWINPLQGGVNYAPEFQGRIRMTRDTFIDTVYVDLSGLTPADTAYYYCARGIDGKSYPFHFWGHGTRVTVFS
V domain 2: RFALTQPASVSGSPGQTITITCAGGSVSWFHFPPGKTPRLIIYESSKRPSGVSPRFSGSQSGSTASLIISGLQSDDEGTYFCSILEFFGRGTLVTVLS
[1]
  IC50: > 50 µg/mL
  IC80: > 50 µg/mL
  MPI: 42
[2]
  IC50: 1.7 µg/mL
  IC80: 10 µg/mL
  MPI: 91
[3]
  IC50: > 50 µg/mL
  IC80: > 50 µg/mL
  MPI: 28
[4]
  IC50: 1.83 µg/mL
  IC80: 18.5 µg/mL
  MPI: 89
[5]
  IC50: 4.6 µg/mL
  IC80: 41.9 µg/mL
  MPI: 87
[6]
  IC50: 15.8 µg/mL
  IC80: > 50 µg/mL
  MPI: 60
[7]
  IC50: 0.898 µg/mL
  IC80: 14.7 µg/mL
  MPI: 83
[8]
  IC50: 0.321 µg/mL
  IC80: 2.4 µg/mL
  MPI: 96
[9]
  IC50: > 50 µg/mL
  IC80: > 50 µg/mL
  MPI: 43
[10]
  IC50: 0.251 µg/mL
  IC80: 2.16 µg/mL
  MPI: 97
[11]
  IC50: 0.043 µg/mL
  IC80: 0.259 µg/mL
  MPI: 100
[12]
  IC50: > 50 µg/mL
  IC80: > 50 µg/mL
  MPI: 0
[13]
  IC50: 0.654 µg/mL
  IC80: 2.89 µg/mL
  MPI: 100
[14]
  IC50: 28.4 µg/mL
  IC80: > 50 µg/mL
  MPI: 57
[15]
  IC50: > 50 µg/mL
  IC80: > 50 µg/mL
  MPI: 5
[16]
  IC50: 0.283 µg/mL
  IC80: 1.36 µg/mL
  MPI: 99
[17]
  IC50: > 50 µg/mL
  IC80: > 50 µg/mL
  MPI: 32
[18]
  IC50: > 50 µg/mL
  IC80: > 50 µg/mL
  MPI: 2
[19]
  IC50: 46.3 µg/mL
  IC80: > 50 µg/mL
  MPI: 53
[20]
  IC50: 2.33 µg/mL
  IC80: 9.76 µg/mL
  MPI: 93
[21]
  IC50: 0.12 µg/mL
  IC80: 0.544 µg/mL
  MPI: 100
[22]
  IC50: 4.66 µg/mL
  IC80: 39.7 µg/mL
  MPI: 83
[23]
  IC50: > 50 µg/mL
  IC80: > 50 µg/mL
  MPI: 1
[24]
  IC50: 1.13 µg/mL
  IC80: > 50 µg/mL
  MPI: 75
[25]
  IC50: 0.565 µg/mL
  IC80: 2.48 µg/mL
  MPI: 97
[26]
  IC50: 0.343 µg/mL
  IC80: 1.64 µg/mL
  MPI: 98
[27]
  IC50: > 50 µg/mL
  IC80: > 50 µg/mL
  MPI: 4
[28]
  IC50: > 50 µg/mL
  IC80: > 50 µg/mL
  MPI: 19
[29]
  IC50: 0.792 µg/mL
  IC80: 12.1 µg/mL
  MPI: 84
[30]
  IC50: 0.433 µg/mL
  IC80: 1.49 µg/mL
  MPI: 100
[31]
  IC50: > 50 µg/mL
  IC80: > 50 µg/mL
  MPI: 4
[32]
  IC50: > 50 µg/mL
  IC80: > 50 µg/mL
  MPI: 6
[33]
  IC50: > 50 µg/mL
  IC80: > 50 µg/mL
  MPI: 9
[34]
  IC50: 2.05 µg/mL
  IC80: 11.7 µg/mL
  MPI: 93
[35]
  IC50: 4.86 µg/mL
  IC80: > 50 µg/mL
  MPI: 74
[36]
  IC50: 2.99 µg/mL
  IC80: > 50 µg/mL
  MPI: 69

B2: N49P23 (antibody, V domains shown)
VH: QVRLVQSGAGARKTGASMKLSCSTSGYTFTTHHGHFINWVRQARGQGLEWMGWMNPMTGQMNIEGKFQGRVTLTRDIYSDTAYMEMTRLTTGDTGTYYCARGDFGQNYPFHYWGQGSLVIVSS
VL: LSALTQPASVSGSPGQSVTISCSGTNRYLVSWYQQHPDKAPKLIIYDDNKRPSGISDRFSASRPDDTASLTISGLQTGDEATYWCASYERFGGGTRLTVLS
[1]
  IC50: 0.043 µg/mL
  IC80: 0.223 µg/mL
  MPI: 100
[2]
  IC50: 0.014 µg/mL
  IC80: 0.051 µg/mL
  MPI: 100
[3]
  IC50: 0.016 µg/mL
  IC80: 0.068 µg/mL
  MPI: 100
[4]
  IC50: 0.012 µg/mL
  IC80: 0.096 µg/mL
  MPI: 100
[5]
  IC50: > 50 µg/mL
  IC80: > 50 µg/mL
  MPI: 20
[6]
  IC50: 0.083 µg/mL
  IC80: 0.643 µg/mL
  MPI: 100
[7]
  IC50: 0.015 µg/mL
  IC80: 0.054 µg/mL
  MPI: 100
[8]
  IC50: 0.01 µg/mL
  IC80: 0.046 µg/mL
  MPI: 100
[9]
  IC50: 0.178 µg/mL
  IC80: 1.17 µg/mL
  MPI: 100
[10]
  IC50: 0.133 µg/mL
  IC80: 0.548 µg/mL
  MPI: 100
[11]
  IC50: 0.005 µg/mL
  IC80: 0.025 µg/mL
  MPI: 100
[12]
  IC50: 0.083 µg/mL
  IC80: 0.44 µg/mL
  MPI: 99
[13]
  IC50: 0.272 µg/mL
  IC80: 1.21 µg/mL
  MPI: 100
[14]
  IC50: > 50 µg/mL
  IC80: > 50 µg/mL
  MPI: 9
[15]
  IC50: 0.127 µg/mL
  IC80: 0.855 µg/mL
  MPI: 100
[16]
  IC50: 0.094 µg/mL
  IC80: 0.336 µg/mL
  MPI: 100
[17]
  IC50: 0.021 µg/mL
  IC80: 0.122 µg/mL
  MPI: 100
[18]
  IC50: > 50 µg/mL
  IC80: > 50 µg/mL
  MPI: 14
[19]
  IC50: 0.221 µg/mL
  IC80: 0.809 µg/mL
  MPI: 100
[20]
  IC50: 0.215 µg/mL
  IC80: 1 µg/mL
  MPI: 100
[21]
  IC50: 0.069 µg/mL
  IC80: 0.245 µg/mL
  MPI: 100
[22]
  IC50: > 50 µg/mL
  IC80: > 50 µg/mL
  MPI: 17
[23]
  IC50: 0.039 µg/mL
  IC80: 0.18 µg/mL
  MPI: 100
[24]
  IC50: 1.39 µg/mL
  IC80: > 50 µg/mL
  MPI: 76
[25]
  IC50: 0.151 µg/mL
  IC80: 0.57 µg/mL
  MPI: 100
[26]
  IC50: 0.013 µg/mL
  IC80: 0.043 µg/mL
  MPI: 100
[27]
  IC50: > 50 µg/mL
  IC80: > 50 µg/mL
  MPI: 0
[28]
  IC50: 0.18 µg/mL
  IC80: 0.849 µg/mL
  MPI: 99
[29]
  IC50: 0.008 µg/mL
  IC80: 0.05 µg/mL
  MPI: 100
[30]
  IC50: 0.087 µg/mL
  IC80: 0.43 µg/mL
  MPI: 100
[31]
  IC50: > 50 µg/mL
  IC80: > 50 µg/mL
  MPI: 20
[32]
  IC50: > 50 µg/mL
  IC80: > 50 µg/mL
  MPI: 2
[33]
  IC50: 0.114 µg/mL
  IC80: 0.899 µg/mL
  MPI: 96
[34]
  IC50: 1.59 µg/mL
  IC80: 11.6 µg/mL
  MPI: 91
[35]
  IC50: 0.045 µg/mL
  IC80: 0.205 µg/mL
  MPI: 100
[36]
  IC50: 0.075 µg/mL
  IC80: 0.483 µg/mL
  MPI: 100
